Measured values from patent publication EP4454706A1 (Universität Stuttgart, dated 2024).
Read-outs that look alike come from different tables or passages of the source.

Experiments:
EGFR-moIgG2a-Fc F436A = target: T1, EGFR-moIgG2a-Fc F436A (human); assay: ELISA, coated mutant EGFR-moIgG2a-Fc
T1 construct: see m31; also called EGFR F436A

EGFR-moIgG2a-Fc I462A = target: T2, EGFR-moIgG2a-Fc I462A (human); assay: ELISA, coated mutant EGFR-moIgG2a-Fc
T2 construct: see m31; also called EGFR I462A

[1] = target: T3, EGFR-moIgG2a-Fc F436A/I462A (human); assay: ELISA, coated mutant EGFR-moIgG2a-Fc
T3 construct: see m31; also called double mutant F436A/I462A

EGFR-moIgG2a-Fc G434A = target: T4, EGFR-moIgG2a-Fc G434A (human); assay: ELISA, coated mutant EGFR-moIgG2a-Fc
T4 construct: also called EGFR G434A

EGFR-moIgG2a-Fc Q435P = target: T5, EGFR-moIgG2a-Fc Q435P (human); assay: ELISA, coated mutant EGFR-moIgG2a-Fc
T5 construct: see m31; also called EGFR Q435P

[2] = target: T6, EGFR-moIgG2a-Fc F381A/H383A (human); assay: ELISA, coated mutant EGFR-moIgG2a-Fc
T6 construct: also called F381/H383

[3] = target: T7, human EGFR (aa 1 - 1,210), on cells (human, UniProt P00533 25-1210); assay: flow cytometry, LIM1215 cells
T7 construct: also called EGFR wt; NIH-3T3 + EGFR wt

[4] = target: T7, human EGFR (aa 1 - 1,210), on cells; assay: flow cytometry, FaDu cells
[5] = target: T8, EGFR-moIgG2a-Fc fusion protein comprising the extracellular domain (aa 25 - 645) of human EGFR (human); assay: competition ELISA, coated EGFR-moIgG2a-Fc; 1 nM IgG against 200 nM Fab-His
T8 construct: also called EGFR wt

[6] = target: T7, human EGFR (aa 1 - 1,210), on cells; assay: flow cytometry, A431 cells
[7] = target: T9, EGFR-His fusion protein comprising the extracellular domain of murine EGFR (aa 25 - 647) (murine, UniProt Q01279 25-647); assay: ELISA, coated murine EGFR-His, 10 nM IgG
T9 construct: Bought protein; also called mouse EGFR; Sino Biological 51091-M08H

[8] = target: T7, human EGFR (aa 1 - 1,210), on cells; assay: flow cytometry, DiFi cells
[9] = target: T7, human EGFR (aa 1 - 1,210), on cells; assay: flow cytometry, HCT-116 cells
[10] = target: T7, human EGFR (aa 1 - 1,210), on cells; assay: cell-based or functional assay
[11] = target: T7, human EGFR (aa 1 - 1,210), on cells; assay: cell-based or functional assay; remark: listed apart in the source
[12] = target: T7, human EGFR (aa 1 - 1,210), on cells; assay: flow cytometry, FaDu cells; remark: listed apart in the source
[13] = target: T7, human EGFR (aa 1 - 1,210), on cells; assay: flow cytometry, FaDu cells; remark: listed apart in the source
[14] = target: T7, human EGFR (aa 1 - 1,210), on cells; assay: flow cytometry, LIM1215 cells; remark: listed apart in the source
CD3 on Jurkat cells = target: T10, CD3 on Jurkat cells (human, UniProt P07766 23-207); assay: flow cytometry, Jurkat cells
T10 construct: whole, on cells; also called CD3-expressing Jurkat

[15] = target: T7, human EGFR (aa 1 - 1,210), on cells; assay: flow cytometry, SW620 cells
EGFR-moIgG2a-Fc K487A = EGFR-moIgG2a-Fc K487A (human); assay: ELISA, coated mutant EGFR-moIgG2a-Fc
EGFR-moIgG2a-Fc S484A = EGFR-moIgG2a-Fc S484A (human); assay: ELISA, coated mutant EGFR-moIgG2a-Fc
[16] = target: T9, EGFR-His fusion protein comprising the …; assay: ELISA, coated murine EGFR-His
[17] = target: T8, EGFR-moIgG2a-Fc fusion protein …; assay: ELISA, coated EGFR-moIgG2a-Fc
EGFR-moIgG2a-Fc K489E = target: T11, EGFR-moIgG2a-Fc K489E (human); assay: ELISA, coated mutant EGFR
T11 construct: See m39

Row | binding result (EGFR-moIgG2a-Fc F436A) | binding result (EGFR-moIgG2a-Fc I462A) | binding result [1] | binding result (EGFR-moIgG2a-Fc G434A) | binding result (EGFR-moIgG2a-Fc Q435P) | EC50 [3] [nM] | EC50 [4] [nM] | EC50 [6] [nM] | EC50 [8] [nM] | binding result [16] | binding result [17] | Binder | also measured
1 | binds | binds | binds | binds | binds | 0.15 | 0.47 | 1.67 | 1.1 |  |  | IgG GC1118 (antibody, V domains shown, also called GC118) VH: EVQLVESGGGVVQPGGSLRLSCAASGFTFSDYDMSWIRQAPGKGLEWVSGILGGSERSYYRDSVKGRFTISRDNSRKTLYLQMNSLRAEDTAVYYCARHGSPGYTLYAWDYWGQGTTVTVSS VL: DIVMTQTPLSLPVTPGEPASISCRSNQDLTHSNGNTYLEWYLQKPGQSPRLLIYKVSNRFSGVPDRFSGSGAGTDFTLRISRVEAEDVGVYYCMQGTHWPWTFGQGTKVDIKR | binding result [2]: no binding; binding result [5]: binds; binding result [7]: binds
2 |  |  |  |  |  |  |  |  |  |  |  | Fab-eIg YU250-H10xhuU3 (bispecific antibody, also called bispecific trivalent EGFRxCD3 Fab-eIg YU250-H10) light: QSVLTQPPSVSGAPGQRVTISCSGGSSNVGRNGVNWFQHLPEKAPKLLIYYDAFLSSGVSDRFSGSKSGTSASLAIRGLQSDDEADYYCAAWDDSLYSWVFGGGTNLTVLGQPKAAPSVTLFPPSSEELQANKATLVCLISDFYPGAVTVAWKADSSPVKAGVETTTPSKQSNNKYAASSYLSLTPEQWKSHRSYSCQVTHEGSTVEKTVAPTECS chain 1: not shown chain 2: not shown chain 3: not shown | EC50 [9]: 0.13 nM; IC50 for cytotoxicity, FaDu + PBMCs (E:T 10:1) [10]: 0.007 nM; IC50 for cytotoxicity, LIM1215 + PBMCs (E:T 10:1) [10]: 0.003 nM; IC50 for cytotoxicity, FaDu + PBMCs (E:T 10:1) [11]: 0.0048 nM; IC50 for cytotoxicity, HCT-116 + PBMCs (E:T 10:1) [11]: 0.003 nM; IC50 for cytotoxicity, SW620 + PBMCs (E:T 10:1) [11]: 0.0049 nM; EC50 [12]: 0.76 nM; EC50 [13]: 0.32 nM; EC50 [14]: 0.27 nM; EC50 (CD3 on Jurkat cells): > 10 nM; EC50 [15]: 0.03 nM
3 | binds | binds | binds | binds | binds | 0.12 | 0.34 | 1.68 | 0.95 | no binding (tested: 10 nM) | binds | Matuzumab (antibody, human IgG1, kappa, V domains shown, also called IgG Matuzumab) VH: QVQLVQSGAEVKKPGASVKVSCKASGYTFTSHWMHWVRQAPGQGLEWIGEFNPSNGRTNYNEKFKSKATMTVDTSTNTAYMELSSLRSEDTAVYYCASRDYDYDGRYFDYWGQGTLVTVSS VL: DIQMTQSPSSLSASVGDRVTITCSASSSVTYMYWYQQKPGKAPKLLIYDTSNLASGVPSRFSGSGSGTDYTFTISSLQPEDIATYYCQQWSSHIFTFGQGTKVEIKR | binding result (EGFR-moIgG2a-Fc K487A): no binding; binding result (EGFR-moIgG2a-Fc S484A): no binding
4 | binds | binds | binds | binds | binds |  |  |  |  | no binding (tested: 10 nM) | binds | Panitumumab (antibody, human IgG1, kappa, V domains shown, also called IgG Panitumumab) VH: QVQLQESGPGLVKPSETLSLTCTVSGGSVSSGDYYWTWIRQSPGKGLEWIGHIYYSGNTNYNPSLKSRLTISIDTSKTQFSLKLSSVTAADTAIYYCVRDRVTGAFDIWGQGTMVTVSS VL: DIQMTQSPSSLSASVGDRVTITCQASQDISNYLNWYQQKPGKAPKLLIYDASNLETGVPSRFSGSGSGTDFTFTISSLQPEDIATYFCQHFDHLPLAFGGGTKVEIKR | binding result (EGFR-moIgG2a-Fc K489E): binds
